Test results taken from patent publication US7166733B2, “O,O'-Amidomalonate and N,O-Amidomalonate platinum complexes” (priority 2000, dated 2007).

How the values were obtained:
[1] = Platinum release from PBS; assay type: physicochemical; conditions: 37° C.
Description: The percent of small platinum species released over time was measured by dissolving about 30 mg of the polymer-platinum conjugate in 15 mL of phosphate buffered saline (10 mM phosphate, 123 mM Cl^−) and incubating the solution at 37° C. in a water bath. At indicated times, 2.0 mL aliquots were transferred to a centrifugal filter with a 3 kDa nominal molecular weight cutoff (Centricon YM-3 from Millipore) and spun until >1.5 mL of filtrate had accumulated. The timed filtrates and the original solution were analyzed for platinum by ICP-OES. The percent of small Pt species released was determined using the formula: ((ppm Pt in filtrate)/(ppm Pt in stock solution))×100.

[2] = tested on: Bl6FI0 melanoma cells; assay: Clonogenic (colony-formation) assay; assay type: cell-based, murine; conditions: 7 days incubation
Description: The relative cytotoxic activity of various O,O′—Pt chelate analogs were evaluated in vitro by means of a clonogenic (colony-formation) assay employing a tissue culture of Bl6FI0 melanoma cells. In this way, the activity of the analogs was compared to that of cisplatin and carboplatin. The effect of conversion to an N,O—Pt chelate was also evaluated. Briefly, cells were seeded into culture dishes and allowed to attach. The cultures were incubated for 7 days in medium containing the desired concentration of the test agent. After fixation, the number of cell clusters containing >50 cells was scored as a colony. Each concentration of test agent was assayed in triplicate. The mean number of colonies in each of the triplicate dishes was divided by the mean number of colonies in the control (no test agent) dishes to obtain a percent survival value for each concentration of test agent. The IC50 (concentration resulting in 50% inhibition of growth) of each of the agents was determined by linear regression analysis using the data values directly above and below the 50% survival point.

[3] = Single-dose IV maximum tolerated dose study; assay type: in vivo; conditions: mice, highest dose with no drug-induced deaths
Excerpt: For these studies, the MTD was defined as the highest dose evaluated in which no mouse deaths resulted from drug-induced toxicity.

[4] = Dependence on pH of the isomer ratio of O,O′—Pt to N,O—Pt chelate (195Pt NMR of timed aliquots); assay type: physicochemical
Description: The percent of O,O′- and N,O-chelate in timed aliquots of reactions mixtures were determined by removing enough of the reaction mixture (4–15 mL depending on concentration) to give greater than 100 mg of Pt-chelate if only ^195Pt NMR spectroscopy was to be done or about 200 mg if % Pt, and % H2O were also to be determined. The aliquots were purified by ultrafiltration using a Centricon Plus-20 centrifugal filter with a 5 kDa Biomax membrane from Millipore. The charged device was spun at the recommended RCF until less than 1 mL remained. The filtrate was discarded, the retentate was diluted with 15–18 mL water and the sample was centrifuged. This was repeated once more, and the retentate was lyophilized to give the sample for analysis.
^195Pt NMR spectra were obtained from a filtered 0.70 mL solution in 93/7 H2O/D2O in a 5 mm tube. Enough sample (80–120 mg) was used to give a solution that was >50 mM in platinum. The probe was tuned for each sample. A pulse width of 90 degrees, an acquisition time of 10 msec, a spectral window of 100 kHz and no delay was used. The transmitter was tuned to approximately midway between the O,O′—Pt and N,O—Pt chelates shifts (−1896 ppm for cis-diammine Pt and at −2450 for DACH—Pt). Between 50,000 and 1 million transients were typically required to obtain a sufficient (>35:1) s/n ratio for the cis-diammine-Pt and DACH=Pt species, respectively. The resulting FID was increasingly left-shifted until a flat baseline was obtained, a 100 Hz line broadening was applied, and a Fourier fill of 2048 was applied before processing. Integral regions were set and the spectrum's baseline was subjected to a spline fit using VNMR software v6.1. The sample was referenced externally to a 100 mM sample of K2PtCl4 in 95/5H2O/D2O and 100 mM HCl at −1624 ppm. This was also used to determine the 90 degree pulse width and T1.
Four 50 mL Centrifuge tubes were each charged with 1.00 g of p(HPMA)-GFLG-Ama=Pt(NH3)2 (either 100% N,O-chelate) or a 92% O,O-chelate, 8% N,O-chelate mixture. These materials were dissolved in 27 mL Milli-Q water (approx a 4 wt % solution) and adjusted to the pH ranges desired using 1 M NaOH or 5% HClO4 as appropriate. The samples were then heated, with stirring, in a 38° C. water bath and maintained within their specified pH ranges. Timed aliquots were taken and frozen until a suitable time at which point the solutions were concentrated by centrifugal ultrafiltration (one spin down at 4800 rpm, 30° C.) and then transferred to an NMR tube. A small amount of D2O was added to each tube and the ^195Pt NMR spectra were recorded.

[5] = Maximum tolerated dose on a qd×5 schedule in the B16 melanoma model; assay type: in vivo; conditions: IP, C57BL/6 mice
Description: (§1) A study was conducted to compare the antitumor activity of poly(HPMA)-GFLG-Ama=Pt=DACH with that of carboplatin in the B16 melanoma model when each agent was administered as an IP injection daily for 5 days (qd×5). The poly(HPMA)-GFLG-Ama=Pt=DACH material was also given at days 15, 16, and 17. Both compounds were given at their respective maximum tolerated (equitoxic) doses on this regimen.
(§2) Female C57BL/6 mice weighing 18–20 g were implanted s.c. with 10^6 B16F10 tumor cells harvested from tissue culture. The size of the resulting tumor was followed individually throughout the study. Tumor mass (in mg) was calculated as (W^2×L)/2, where W is the shorter tumor dimension and L is the longer tumor dimension. Individual treatments were administered when the tumor was 75–100 mg in size. The injection volume was 0.04 mL per gram of body weight, and the drug was administered intraperitoneally. Tumor mass and body weight were measured daily. Data are expressed as the mean±SEM of the tumor mass and are plotted until 50% of the animals in each treatment group have died or been sacrificed due to excessive tumor mass, tumor ulceration, or morbidity. For comparison of the activity of different agents, each administered at its respective maximum tolerated doses (MTD), the MTD is defined as that dose which reproducibly induces no more than 10% (1 out of each 10 animals per group) early toxic deaths not attributable to tumor burden, and which results in a mean maximum body weight loss (i.e., the group mean of the nadir in each individual mouse weight, regardless of the day on which it occurred) of 10–15%, followed by recovery in lost weight.
(§3) A study was conducted to compare the antitumor activity of p(HPMA)-GFLG-C3-Sulf-Ama=Pt=DACH with that of carboplatin in the B16 melanoma model when each agent was administered as an IP injection daily for 5 days (qd×5). Both compounds were given at their respective maximum tolerated (equitoxic) doses on this regimen.
(§4) The methods utilized in this study were identical to those utilized for the p(HPMA)-GFLG-C3-Sulf-Ama=Pt=DACH study of Example 38.

[6] = tested on: B16 melanoma; assay: Antitumor activity in the B16 melanoma model, multi-dose protocol; assay type: in vivo; conditions: s.c. B16F10 in C57BL/6 mice
Description: as §1, §2, §3, §4

[7] = pH 5.0–5.5, 38° C., 100 mM ClO4^−, 1 h
[8] = pH 5.0–5.5, 38° C., 100 mM ClO4^−, 5 h
[9] = pH 5.0–5.5, 38° C., 100 mM ClO4^−, 8 h
[10] = pH 5.0–5.5, 38° C., 100 mM ClO4^−, 22 h
[11] = pH 5.0–5.5, 38° C., 100 mM Cl^−, 1 h
[12] = pH 5.0–5.5, 38° C., 100 mM Cl^−, 5 h
[13] = pH 5.0–5.5, 38° C., 100 mM Cl^−, 8 h
[14] = pH 5.0–5.5, 38° C., 100 mM Cl^−, 22 h
[15] = Example 39 study, IP qd×5 at MTD
[16] = Example 38 study, IP qd×5 at MTD (polymer also days 15, 16, 17)

Molecule: poly(HPMA)-GG-Ama=Pt(NH3)2 N,O Chelate [Example 17]
- Pt release in PBS ([1]; 3 hours): 1.4%
- Pt release in PBS ([1]; 24 hours): 4.6%

Molecule: poly(HPMA)=GFLG-Ama=Pt=DACH, O,O′—Pt chelate [Example 5]
- IC50 [2]: 1000 nM
- Pt release in PBS ([1]; 3 hours): 6.0%
- Pt release in PBS ([1]; 24 hours): 10.9%

Molecule: poly(HPMA)-GFLG-Ama=Pt(NH3)2O,O′—Pt chelate [Example 3]
- maximum tolerated dose (MTD) [3]: 80–100 mg PVkg
- IC50 [2]: 800 to 1100 nM
- N,O— chelate ([4]; pH 3.0–3.5, 38° C., 1 h): 0%
- O,O— chelate ([4]; pH 3.0–3.5, 38° C., 1 h): 100%
- N,O— chelate ([4]; pH 3.0–3.5, 38° C., 5 h): 3%
- O,O— chelate ([4]; pH 3.0–3.5, 38° C., 5 h): 97%
- N,O— chelate ([4]; pH 3.0–3.5, 38° C., 20 h): 2%
- O,O— chelate ([4]; pH 3.0–3.5, 38° C., 20 h): 98%
- N,O— chelate ([4]; pH 4.0–4.5, 38° C., 1 h): 25%
- O,O— chelate ([4]; pH 4.0–4.5, 38° C., 1 h): 75%
- N,O— chelate ([4]; pH 4.0–4.5, 38° C., 5 h): 21%
- O,O— chelate ([4]; pH 4.0–4.5, 38° C., 5 h): 79%
- N,O— chelate ([4]; pH 4.0–4.5, 38° C., 20 h): 28%
- O,O— chelate ([4]; pH 4.0–4.5, 38° C., 20 h): 72%
- N,O— chelate [4, 7]: 31%
- O,O— chelate [4, 7]: 69%
- N,O— chelate [4, 8]: 56%
- O,O— chelate [4, 8]: 44%
- N,O— chelate [4, 9]: 67%
- O,O— chelate [4, 9]: 33%
- N,O— chelate [4, 10]: 60%
- O,O— chelate [4, 10]: 40%
- N,O— chelate [4, 11]: 31%
- O,O— chelate [4, 11]: 69%
- N,O— chelate [4, 12]: 54%
- O,O— chelate [4, 12]: 46%
- N,O— chelate [4, 13]: 68%
- O,O— chelate [4, 13]: 32%
- N,O— chelate [4, 14]: 68%
- O,O— chelate [4, 14]: 32%
- N,O— chelate ([4]; pH 5.0–5.5, 38° C., 1 h): 33%
- O,O— chelate ([4]; pH 5.0–5.5, 38° C., 1 h): 67%
- N,O— chelate ([4]; pH 5.0–5.5, 38° C., 5 h): 49%
- O,O— chelate ([4]; pH 5.0–5.5, 38° C., 5 h): 51%
- N,O— chelate ([4]; pH 5.0–5.5, 38° C., 20 h): 65%
- O,O— chelate ([4]; pH 5.0–5.5, 38° C., 20 h): 35%
- N,O— chelate ([4]; pH 6.0–6.5, 38° C., 1 h): 43%
- O,O— chelate ([4]; pH 6.0–6.5, 38° C., 1 h): 57%
- N,O— chelate ([4]; pH 6.0–6.5, 38° C., 5 h): 66%
- O,O— chelate ([4]; pH 6.0–6.5, 38° C., 5 h): 34%
- N,O— chelate ([4]; pH 6.0–6.5, 38° C., 20 h): 91%
- O,O— chelate ([4]; pH 6.0–6.5, 38° C., 20 h): 9%

Molecule: poly(HPMA)-GG-NH(CH2)3SO2Ama=Pt=DACH, Approx. 22 kDa [Example 25]
- Pt release in PBS ([1]; 3 hours): 1.0%
- Pt release in PBS ([1]; 24 hours): 1.93%

Molecule: p(HPMA)-GFLG-Ama═Pt═(NH3)2, 45 kDa, O,O′—Pt
- IC50 [2]: 1000 nM

Molecule: poly(HPMA)-GFLG-NH(CH2)3SO2-Ama=Pt=DACH N,O-chelate [Example 29]
- maximum tolerated dose [5]: 75 mg Pt/kg
- Pt release in PBS ([1]; 3 hours): 2.12%
- Pt release in PBS ([1]; 24 hours): 4.54%
- inhibition of tumor growth [6, 15]: more marked inhibition in tumor growth

Molecule: poly(HPMA)-GFLG-Ama=Pt=DACH, N,O—Pt chelate [Example 6]
- IC50 [2]: < 4000 nM

Molecule: N.N.O=C([O-])C1(C(=O)[O-])CCC1.[Pt+2] [Carboplatin, reference compound]
- maximum tolerated dose [5]: 60 mg/kg
- maximum tolerated dose, equivalent in Pt [5]: 32 mg Pt/kg
- IC50 [2]: 2400 nM
- inhibition of tumor growth [6, 16]: modest inhibition of tumor growth
- inhibition of tumor growth [6, 15]: very little inhibition of tumor growth

Molecule: poly(HPMA)-GG-Ama=Pt=DACH N,O-Chelate [Example 18]
- Pt release in PBS ([1]; 3 hours): 1.3%
- Pt release in PBS ([1]; 24 hours): 5.5%

Molecule: poly(HPMA)-GFLG-C3-Sulf-Ama=Pt(NH3)2 N,O-chelate [Example 28]
- Pt release in PBS ([1]; 3 hours): 3.02%
- Pt release in PBS ([1]; 24 hours): 5.44%

Molecule: poly(HPMA)-GGGG-Ama=Pt=1R,2R-DACH N,O-Chelate [Example 21]
- Pt release in PBS ([1]; 3 hours): 0.972%
- Pt release in PBS ([1]; 24 hours): 3.173%

Molecule: N.N.[Cl][Pt][Cl] [Cisplatin, cis-diamminedichloroplatinum(II), reference compound]
- IC50 [2]: 500 nM

Molecule: p(HPMA)-GFLG-Ama═Pt═(NH3)2, 90 kDa, O,O′—Pt
- IC50 [2]: 900 nM

Molecule: poly(HPMA)-GFLG-Ama=Pt(NH3)2, N,O—Pt chelate, >351 kDa [Example 14]
- Pt release in PBS ([1]; 3 hours): 0.68%
- Pt release in PBS ([1]; 24 hours): 2.28%

Molecule: p(HPMA)-GFLG-Ama=Pt=DACH
- maximum tolerated dose [5]: 100 mg Pt/kg
- inhibition of tumor growth [6, 16]: tumor growth was substantially slowed and prolonged
